Earlier results in patent US20200069786A1, “COMPOSITION AND PROCESS FOR PREPARING VACCINE” (TREOS BIO ZRT., priority 2018, published 2020).
Read-outs that look alike come from different tables or passages of the source.

Test system: TSA
[1] = TSA expression rate in Cervical cancer
[2] = TSA expression rate in Esophageal
[3] = TSA expression rate in LUNG cancer
[4] = TSA expression rate in PROSTATE cancer
[5] = TSA expression rate in BLADDER cancer
[6] = TSA expression rate in GASTRIC cancer
[7] = TSA expression rate in HEAD and NECK
[8] = TSA expression rate in MELANOMA

Molecule	TSA Expression Rate (ER) (BRAIN)	TSA Expression Rate (ER) (BREAST)	TSA Expression Rate (ER) (HCC)	TSA Expression Rate (ER) (OVARIAN)	TSA Expression Rate (ER) (THYROID)	Expression Rate (ER) % [1]	Expression Rate (ER) % [2]	Expression Rate (ER) % [3]	Expression Rate (ER) % [4]	Expression Rate (ER) % [5]	Expression Rate (ER) % (TSA expression rate in CRC)	Expression Rate (ER) % [6]	Expression Rate (ER) % [7]	Expression Rate (ER) % (TSA expression rate in Kidney)	Expression Rate (ER) % [8]	TSA Expression Rate (ER) (LUNG)
SP17 (protein, UniProt Q15506 1-151, looked up) Sperm surface protein Sp17: MSIPFSNTHYRIPQGFGNLLEGLTREILREQPDNIPAFAAAYFESLLEKREKTNFDPAEWGSKVEDRFYNNHAFEEQEPPEKSDPKQEESQISGKEEETSVTILDSSEEDKEKEEVAAVKIQAAFRGHIAREEAKKMKTNSLQNEEKEENK	13%	47%	87%	62%	10%	61%	81%	12%	10%							
NXF2 (protein, UniProt Q9GZY0 1-626, looked up) Nuclear RNA export factor 2: MCSTLKKCGTYRTEVAECHDHGSTFQGRKKGGSSFRDNFDKRSCHYEHGGYERPPSHCQENDGSVEMRDVHKDQQLRHTPYSIRCERRMKWHSEDEIRITTWRNRKPPERKMSQNTQDGYTRNWFKVTIPYGIKYDKAWLMNSIQSHCSDRFTPVDFHYVRNRACFFVQDASAASALKDVSYKIYDDENQKICIFVNHSTAPYSVKNKLKPGQMEMLKLTMNKRYNVSQQALDLQNLRFDPDLMGRDIDIILNRRNCMAATLKIIERNFPELLSLNLCNNKLYQLDGLSDITEKAPKVKTLNLSKNKLESAWELGKVKGLKLEELWLEGNPLCSTFSDQSAYVSAIRDCFPKLLRLDGRELSAPVIVDIDSSETMKPCKENFTGSETLKHLVLQFLQQYYSIYDSGDRQGLLGAYHDEACFSLAIPFDPKDSAPSSLCKYFEDSRNMKTLKDPYLKGELLRRTKRDIVDSLSALPKTQHDLSSILVDVWCQTERMLCFSVNGVFKEVEGQSQGSVLAFTRTFIATPGSSSSLCIVNDELFVRDASPQETQSAFSIPVSTLSSSSEPSLSQEQQEMVQAFSAQSGMKLEWSQKCLQDNEWNYTRAGQAFTMLQTEGKIPAEAFKQIS	18%	2%			20%		17%	15%	14%	19%	9%	6%	5%	0%	8%	
HAGE (protein, UniProt Q9NXZ2 1-648, looked up) Probable ATP-dependent RNA …: MSHHGGAPKASTWVVASRRSSTVSRAPERRPAEELNRTGPEGYSVGRGGRWRGTSRPPEAVAAGHEELPLCFALKSHFVGAVIGRGGSKIKNIQSTTNTTIQIIQEQPESLVKIFGSKAMQTKAKAVIDNFVKKLEENYNSECGIDTAFQPSVGKDGSTDNNVVAGDRPLIDWDQIREEGLKWQKTKWADLPPIKKNFYKESTATSAMSKVEADSWRKENFNITWDDLKDGEKRPIPNPTCTFDDAFQCYPEVMENIKKAGFQKPTPIQSQAWPIVLQGIDLIGVAQTGTGKTLCYLMPGFIHLVLQPSLKGQRNRPGMLVLTPTRELALQVEGECCKYSYKGLRSVCVYGGGNRDEQIEELKKGVDIIIATPGRLNDLQMSNFVNLKNITYLVLDEADKMLDMGFEPQIMKILLDVRPDRQTVMTSATWPHSVHRLAQSYLKEPMIVYVGTLDLVAVSSVKQNIIVTTEEEKWSHMQTFLQSMSSTDKVIVFVSRKAVADHLSSDLILGNISVESLHGDREQRDREKALENFKTGKVRILIATDLASRGLDVHDVTHVYNFDFPRNIEEYVHRIGRTGRAGRTGVSITTLTRNDWRVASELINILERANQSIPEELVSMAERFKAHQQKREMERKMERPQGRPKKFH	38%	14%			20%		27%		22%	24%	15%		20%	6%	17%	32%
PASD1 (protein, UniProt Q8IV76 1-773, looked up) Circadian clock protein PASD1: MKMRGEKRRDKVNPKSSQRKLNWIPSFPTYDYFNQVTLQLLDGFMITLSTDGVIICVAENISSLLGHLPAEIVGKKLLSLLPDEEKDEVYQKIILKFPLLNSETHIEFCCHLKRGNVEHGDSSAYENVKFIVNVRDICNEFPVVFSGLFSSHLCADFAACVPQEDRLYLVGNVCILRTQLLQQLYTSKAVSDEAVLTQDSDEEPFVGELSSSQGQRGHTSMKAVYVEPAAAAAAAAISDDQIDIAEVEQYGPQENVHMFVDSDSTYCSSTVFLDTMPESPALSLQDFRGEPEVNPLYRADPVDLEFSVDQVDSVDQEGPMDQQDPENPVAPLDQAGLMDPVDPEDSVDLGAAGASAQPLQPSSPVAYDIISQELELMKKLKEQLEERTWLLHDAIQNQQNALELMMDHLQKQPNTLRHVVIPDLQSSEAVPKKQQKQHAGQVKRPLPHPKDVKCFCGLSLSNSLKNTGELQEPCVAFNQQQLVQQEQHLKEQQRQLREQLQQLREQRKVQKQKKMQEKKKLQEQKMQEKKKLQEQRRQKKKKLQERKKWQGQMLQKEPEEEQQKQQLQEQPLKHNVIVGNERVQICLQNPRDVSVPLCNHPVRFLQAQPIVPVQRAAEQQPSGFYQDENCGQQEDESQSFYPEAYQGPPVNQLPLIDTSNSEAISSSSIPQFPITSDSTISTLETPQDYIRLWQELSDSLGPVVQVNTWSCDEQGTLHGQPTYHQVQVSEVGVEGPPDPQAFQGPAAYQPDQMRSAEQTRLMPAEQRDSNKPC	31%				25%	58%			29%		44%	44%			44%	29%
TPTE (protein, UniProt P56180 1-551, looked up) Putative tyrosine-protein …: MNESPDPTDLAGVIIELGPNDSPQTSEFKGATEEAPAKESPHTSEFKGAARVSPISESVLARLSKFEVEDAENVASYDSKIKKIVHSIVSSFAFGLFGVFLVLLDVTLILADLIFTDSKLYIPLEYRSISLAIALFFLMDVLLRVFVERRQQYFSDLFNILDTAIIVILLLVDVVYIFFDIKLLRNIPRWTHLLRLLRLIILLRIFHLFHQKRQLEKLIRRRVSENKRRYTRDGFDLDLTYVTERIIAMSFPSSGRQSFYRNPIKEVVRFLDKKHRNHYRVYNLCSERAYDPKHFHNRVVRIMIDDHNVPTLHQMVVFTKEVNEWMAQDLENIVAIHCKGGTDRTGTMVCAFLIASEICSTAKESLYYFGERRTDKTHSEKFQGVKTPSQKRYVAYFAQVKHLYNWNLPPRRILFIKHFIIYSIPRYVRDLKIQIEMEKKVVFSTISLGKCSVLDNITTDKILIDVFDGLPLYDDVKVQFFYSNLPTYYDNCSFYFWLHTSFIENNRLYLPKNELDNLHKQKARRIYPSDFAVEILFGEKMTSSDVVAGSD	0%		39%								4%	0%	0%			36%
MAGE-B6 (protein, UniProt Q8N7X4 1-407, looked up) Melanoma-associated antigen B6: MPRGHKSKLRTCEKRQETNGQPQGLTGPQATAEKQEESHSSSSSSRACLGDCRRSSDASIPQESQGVSPTGSPDAVVSYSKSDVAANGQDEKSPSTSRDASVPQESQGASPTGSPDAGVSGSKYDVAANGQDEKSPSTSHDVSVPQESQGASPTGSPDAGVSGSKYDVAAEGEDEESVSASQKAIIFKRLSKDAVKKKACTLAQFLQKKFEKKESILKADMLKCVRREYKPYFPQILNRTSQHLVVAFGVELKEMDSSGESYTLVSKLGLPSEGILSGDNALPKSGLLMSLLVVIFMNGNCATEEEVWEFLGLLGIYDGILHSIYGDARKIITEDLVQDKYVVYRQVCNSDPPCYEFLWGPRAYAETTKMRVLRVLADSSNTSPGLYPHLYEDALIDEVERALRLRA	6%															
TRAG-3 (protein, UniProt Q9Y5P2 1-127, looked up) Chondrosarcoma-associated …: MWMGLIQLVEGVKRKDQGFLEKEFYHKTNIKMRCEFLACWPAFTVLGEAWRDQVDWSRLLRDAGLVKMSRKPRASSPLSNNHPPTPKRRGSGRHPLNPGPEALSKFPRQPGREKGPIKEVPGTKGSP	0%	10%	26%	83%			55%				7%	10%				54%
FAM46D (protein, UniProt Q8NEK8 1-389, looked up) Terminal …: MSEIRFTNLTWDQVITLDQVLDEVIPIHGKGNFPTMEVKPKDIIHVVKDQLIGQGIIVKDARLNGSVASYILASHNGISYKDLDVIFGVELPGNEEFQVVKDAVLDCLLDFLPKDVKKEKLSPDIMKDAYVQKLVKVCNGHDCWSLISLSNNTGKNLELKFVSSLRRQFEFSVDSFQIVLDPMLDFYSDKNAKLTKESYPVVVAESMYGDFQEAMTHLQHKLICTRKPEEIRGGGLLKYCSLLVHGFKPACMSEIKNLERYMCSRFFIDFPHIEEQQKKIESYLHNHFIGEGMTKYDYLMTLHGVVNESTVCLMSYERRQILHLITMMALKVLGELNILPNTQKVTCFYQPAPYFAAEARYPIYVIPEPPPVSFQPYHPLHFRGSNGMS	8%				8%	37%			33%		22%	11%			28%	50%
SLCO6A1 (protein, UniProt Q86UG4 1-719, looked up) Solute carrier organic anion …: MFVGVARHSGSQDEVSRGVEPLEAARAQPAKDRRAKGTPKSSKPGKKHRYLRLLPEALIRFGGFRKRKKAKSSVSKKPGEVDDSLEQPCGLGCLVSTCCECCNNIRCFMIFYCILLICQGVVFGLIDVSIGDFQKEYQLKTIEKLALEKSYDISSGLVAIFIAFYGDRKKVIWFVASSFLIGLGSLLCAFPSINEENKQSKVGIEDICEEIKVVSGCQSSGISFQSKYLSFFILGQTVQGIAGMPLYILGITFIDENVATHSAGIYLGIAECTSMIGYALGYVLGAPLVKVPENTTSATNTTVNNGSPEWLWTWWINFLFAAVVAWCTLIPLSCFPNNMPGSTRIKARKRKQLHFFDSRLKDLKLGTNIKDLCAALWILMKNPVLICLALSKATEYLVIIGASEFLPIYLENQFILTPTVATTLAGLVLIPGGALGQLLGGVIVSTLEMSCKALMRFIMVTSVISLILLVFIIFVRCNPVQFAGINEDYDGTGKLGNLTAPCNEKCRCSSSIYSSICGRDDIEYFSPCFAGCTYSKAQNQKKMYYNCSCIKEGLITADAEGDFIDARPGKCDAKCYKLPLFIAFIFSTLIFSGFSGVPIVLAMTRVVPDKLRSLALGVSYVILRIFGTIPGPSIFKMSGETSCILRDVNKCGHTGRCWIYNKTKMAFLLVGICFLCKLCTIIFTTIAFFIYKRRLNENTDFPDVTVKNPKVKKKEETDL	19%	7%					33%	7%								
